Tests used:
[1] = target: T1, NS3h (NS3 helicase domain) (Dengue virus serotype 2 (infectious …, UniProt O09234 1646-2093)); test: fluorescence titration
[2] = target: T1, NS3h (NS3 helicase domain); test: competition
[3] = target: T1, NS3h (NS3 helicase domain); test: EMSA
[4] = target: T1, NS3h (NS3 helicase domain); test: competition; remark: listed apart in the source
[5] = target: T1, NS3h (NS3 helicase domain); test: competition; remark: listed apart in the source
[6] = target: T1, NS3h (NS3 helicase domain); test: competition; remark: listed apart in the source

B1: F-p-R12 (ssRNA)
RNA: AGUUGAGUUGAG
Ka [1]: 20.8 ± 0.5 10^6 M-1

B2: (U)12 (ssRNA)
RNA: UUUUUUUUUUUU
binding result [2]: no binding

B3: F-p-R10 (ssRNA)
RNA: AGUUGAGUUG
Ka [1]: 11.3 ± 0.1 10^6 M-1

B4: F-p-D20 (ssDNA)
DNA: AGTTGAGTTGAGTTGAGTTG
binding result [3]: no binding

B5: R20 (ssRNA)
RNA: AGUUGAGUUGAGUUGAGUUG
Ka [4]: 16.7 ± 0.7 10^6 M-1 | Ka [5]: 0.6 ± 0.1 10^6 M-1

B6: R10 (ssRNA)
RNA: AGUUGAGUUG
Ka [6]: 1.69 ± 0.04 10^6 M-1

B7: R15 (ssRNA)
RNA: AGUUGAGUUGAGUUG
Ka [6]: 7.4 ± 0.2 10^6 M-1

B8: R12 (ssRNA)
RNA: AGUUGAGUUGAG
Ka [6]: 2.64 ± 0.06 10^6 M-1

B9: R18 (ssRNA)
RNA: AGUUGAGUUGAGUUGAGU
Ka [6]: 11.5 ± 0.3 10^6 M-1

Source: paper PMC4191397
